The values that follow come from PMC6895700, “SIX3 and SIX6 interact with GEMININ via C-terminal regions” (Biochemistry and Biophysics Reports, 2019).

Usually stoichiometry N stands for the number of molecules, sites or subunits per partner or assembly.

B2: GEMININ (human, full-length, MBP tag removed) (natural protein, UniProt O75496 1-209, looked up)
chain: MNPSMKQKQEEIKENIKNSSVPRRTLKMIQPSASGSLVGRENELSAGLSKRKHRNDHLTSTTSSPGVIVPESSENKNLGGVTQESFDLMIKENPSSQYWKEVAEKRRKALYEALKENEKLHKEIEQKDNEIARLKKENKELAEVAEHVQYMAELIERLNGEPLDNFESLDNQEFDSEEETVEDSLVEDSEIGTCAEGTVSSSTDAKPCI
notes: The His6 tag lies with MBP at the N-terminus, before the TEV site of pETMBP_1, so it was probably removed with MBP; also called GMNN; source: E. coli BL21Star (DE3), purified (Ni-NTA HisTrap HP, TEV digestion, size exclusion); not shown: MBP, N-terminal, cleaved

Conditions in all cases: both partners purified
Assay [1] has as its target B2. Put plainly: SPR; Biacore T200, GEMININ (1370 RU) immobilised by amine coupling on a CM5 chip; MBP fusions or MBP alone as analyte; 25 °C; PBS-TCEP (3.5 mM TCEP) with 350 mM NaCl (results: 437 mM NaCl); 30 μl/min; apparent KD from a steady-state fit. Background: Surface plasmon resonance follows binding to a sensor surface in real time, without labels.
Assay [2] addresses T1, MBP-fused full-length SIX3 (SIX3 without aa 1-78) (human, UniProt O95343 79-332).
T1 construct: SIX3, human, without the N-terminal homopolymeric region (aa 1-78, GenBank AF049339); A TEV site lies between the tags and SIX3; also called MBPSIX3; source: E. coli BL21Star (DE3), purified (Ni-NTA HisTrap HP, size exclusion); not shown: MBP, N-terminal, kept
T1 sequence (looked up): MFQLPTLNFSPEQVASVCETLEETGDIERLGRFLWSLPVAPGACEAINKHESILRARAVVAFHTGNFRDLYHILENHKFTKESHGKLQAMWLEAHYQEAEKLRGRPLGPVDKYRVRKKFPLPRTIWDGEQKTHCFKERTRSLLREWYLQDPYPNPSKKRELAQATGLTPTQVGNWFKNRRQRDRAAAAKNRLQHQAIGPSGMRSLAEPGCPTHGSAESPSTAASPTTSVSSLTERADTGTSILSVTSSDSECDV
Described as above.

Assay [3] addresses T1, MBP-fused full-length SIX3 (SIX3 …). Put plainly: ITC; Nano ITC LV, 25 °C, PBS-TCEP with 300 mM NaCl (results: 437 mM NaCl); 200 μM GEMININ (or its coiled-coil region) in the syringe, 10 μM MBPSIX3 (or MBP alone) in the cell; independent binding sites model; GEMININ-to-MBP control subtracted. On the technique in general: ITC needs no label: the signal is the heat of the interaction.

Where “and” joins values, the source holds several entries; their conditions need not be identical. Identical values can stand only once.

B1: MBP-fused SIX domain of SIX3 (domain or fragment)
chain: MFQLPTLNFSPEQVASVCETLEETGDIERLGRFLWSLPVAPGACEAINKHESILRARAVVAFHTGNFRDLYHILENHKFTKESHGKLQAMWLEAHYQEAEKLRGRPLGPVDKYRVRKKFPLPRTIWD
modifications: Assayed as an N-terminal His6-MBP fusion (left out). Start follows the printed deletion of aa 1-78; end is derived from the stop-codon primer (T-I-W-D-stop), just before the homeobox at 206.
For B1, in assay [1], the Kd was 19.5 µM and 19.6 µM.

Consider B2, for which the Kd in assay [2] was 3.19 µM. For the same molecule, in assay [3], the Kd is 3.4 µM and 3.41 µM; the dH was -75.8 kcal/mol; the “stoichiometry N” value turned out to be 0.55.
